Results reported in patent US20250188146A1.

Legend:
CD19 = CD19 (UniProt P15391); assay: cell-based or functional assay
[1] = molecular target: CLDN18.2 on KATO III-18.2+ cells (UniProt P56856); assay: cell-based or functional assay

CD19, sequence (P15391 20-556 limits assumed): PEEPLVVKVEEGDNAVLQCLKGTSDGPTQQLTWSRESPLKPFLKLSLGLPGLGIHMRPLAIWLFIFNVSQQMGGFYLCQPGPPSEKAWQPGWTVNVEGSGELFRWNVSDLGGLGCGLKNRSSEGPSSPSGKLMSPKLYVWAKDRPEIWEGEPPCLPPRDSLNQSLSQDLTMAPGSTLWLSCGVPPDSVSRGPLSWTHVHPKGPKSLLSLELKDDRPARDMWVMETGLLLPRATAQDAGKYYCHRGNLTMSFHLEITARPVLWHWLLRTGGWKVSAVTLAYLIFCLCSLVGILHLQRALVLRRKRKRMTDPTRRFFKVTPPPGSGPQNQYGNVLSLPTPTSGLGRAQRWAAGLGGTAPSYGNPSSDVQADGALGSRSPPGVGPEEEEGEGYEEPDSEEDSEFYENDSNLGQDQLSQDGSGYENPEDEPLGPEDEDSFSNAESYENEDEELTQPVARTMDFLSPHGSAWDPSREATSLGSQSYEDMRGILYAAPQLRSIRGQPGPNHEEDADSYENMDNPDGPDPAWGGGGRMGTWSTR

B1: CD19 CAR with humanized CD19 scFv (binding domain SEQ ID NO: 5) (protein, not shown: a dimerising Fc or GST)
chain: DIQMTQSPSSLSASVGDRVTITCRASQDISKYLNWYQQKPGKAPKLLIYHTSRLHSGVPSRFSGSGSGTDFTLTISSLQPEDFATYYCQQGNTLPYTFGQGTKVEIKGGGGSGGGGSGGGGSEVQLVESGGGLVQPGGSLRLSCAASGVSLPDYGVSWVRQAPGKGLEWVSVIWGSETTYYNSALKSRFTISRDNAKNSLYLQMNSLRAEDTAVYYCAKHYYYGGSYAMDYWGQGTLVTVSS
**Q.** Which CD25, hCAR+ cells; K19 co-culture 24 h; PBMC+, IL6+, IL15- (CD19) does the source give for B1 here?
**A.** 48.3%

**Q.** What about the CD25, hCAR+ cells; K19 co-culture 24 h; PBMC+, IL6-, IL15- (CD19) of the same binder?
**A.** 53%

**Q.** And the CD25, hCAR+ cells; K19 co-culture 24 h; PBMC-, IL6+, IL15- (CD19)?
**A.** 52.3%

**Q.** And the CD25, hCAR+ cells; K19 co-culture 24 h; PBMC-, IL6-, IL15+ (CD19)?
**A.** 57.1%

**Q.** And the CD25, hCAR+ cells; K19 co-culture 24 h; PBMC-, IL6-, IL15- (CD19)?
**A.** 53.1%

**Q.** And the CD25, hCAR+ cells; K19 co-culture 48 h; PBMC+, IL6+, IL15- (CD19)?
**A.** 34.2%

**Q.** What about the CD25, hCAR+ cells; K19 co-culture 48 h; PBMC+, IL6-, IL15- (CD19) of the same binder?
**A.** 35.8%

**Q.** And the CD25, hCAR+ cells; K19 co-culture 48 h; PBMC-, IL6+, IL15- (CD19)?
**A.** 39.1%

**Q.** What about the CD25, hCAR+ cells; K19 co-culture 48 h; PBMC-, IL6-, IL15+ (CD19) of the same binder?
**A.** 43.4%

**Q.** What about the CD25, hCAR+ cells; K19 co-culture 48 h; PBMC-, IL6-, IL15- (CD19) of the same binder?
**A.** 41.5%

**Q.** What about the CD25 MFI, hCAR+ cells; K19 co-culture 24 h; PBMC+, IL6+, IL15- (CD19) of the same binder?
**A.** 6740 MFI

**Q.** What about the CD25 MFI, hCAR+ cells; K19 co-culture 24 h; PBMC+, IL6-, IL15- (CD19) of the same binder?
**A.** 7080 MFI

**Q.** What about the CD25 MFI, hCAR+ cells; K19 co-culture 24 h; PBMC-, IL6+, IL15- (CD19) of the same binder?
**A.** 6480 MFI

**Q.** And the CD25 MFI, hCAR+ cells; K19 co-culture 24 h; PBMC-, IL6-, IL15+ (CD19)?
**A.** 6060 MFI

**Q.** What about the CD25 MFI, hCAR+ cells; K19 co-culture 24 h; PBMC-, IL6-, IL15- (CD19) of the same binder?
**A.** 6200 MFI

**Q.** What about the CD25 MFI, hCAR+ cells; K19 co-culture 48 h; PBMC+, IL6+, IL15- (CD19) of the same binder?
**A.** 11200 MFI

**Q.** What about the CD25 MFI, hCAR+ cells; K19 co-culture 48 h; PBMC+, IL6-, IL15- (CD19) of the same binder?
**A.** 11800 MFI

**Q.** What about the CD25 MFI, hCAR+ cells; K19 co-culture 48 h; PBMC-, IL6+, IL15- (CD19) of the same binder?
**A.** 12300 MFI

**Q.** And the CD25 MFI, hCAR+ cells; K19 co-culture 48 h; PBMC-, IL6-, IL15+ (CD19)?
**A.** 11400 MFI

**Q.** What about the CD25 MFI, hCAR+ cells; K19 co-culture 48 h; PBMC-, IL6-, IL15- (CD19) of the same binder?
**A.** 11100 MFI

**Q.** And the CD137, hCAR+ cells; K19 co-culture 24 h; PBMC+, IL6+, IL15- (CD19)?
**A.** 35.6%

**Q.** And the CD137, hCAR+ cells; K19 co-culture 24 h; PBMC+, IL6-, IL15- (CD19)?
**A.** 39.9%

**Q.** And the CD137, hCAR+ cells; K19 co-culture 24 h; PBMC-, IL6+, IL15- (CD19)?
**A.** 55.8%

**Q.** And the CD137, hCAR+ cells; K19 co-culture 24 h; PBMC-, IL6-, IL15+ (CD19)?
**A.** 62.1%

**Q.** And the CD137, hCAR+ cells; K19 co-culture 24 h; PBMC-, IL6-, IL15- (CD19)?
**A.** 57.4%

**Q.** And the CD137, hCAR+ cells; K19 co-culture 48 h; PBMC+, IL6+, IL15- (CD19)?
**A.** 28%

**Q.** What about the CD137, hCAR+ cells; K19 co-culture 48 h; PBMC+, IL6-, IL15- (CD19) of the same binder?
**A.** 47.1%

**Q.** And the CD137, hCAR+ cells; K19 co-culture 48 h; PBMC-, IL6+, IL15- (CD19)?
**A.** 57.6%

**Q.** What about the CD137, hCAR+ cells; K19 co-culture 48 h; PBMC-, IL6-, IL15+ (CD19) of the same binder?
**A.** 58.6%

**Q.** And the CD137, hCAR+ cells; K19 co-culture 48 h; PBMC-, IL6-, IL15- (CD19)?
**A.** 57.3%

**Q.** What about the CD137MFI, hCAR+ cells; K19 co-culture 24 h; PBMC+, IL6+, IL15- (CD19) of the same binder?
**A.** 18100 MFI

**Q.** What about the CD137MFI, hCAR+ cells; K19 co-culture 24 h; PBMC+, IL6-, IL15- (CD19) of the same binder?
**A.** 19000 MFI

**Q.** What about the CD137MFI, hCAR+ cells; K19 co-culture 24 h; PBMC-, IL6+, IL15- (CD19) of the same binder?
**A.** 23400 MFI

**Q.** And the CD137MFI, hCAR+ cells; K19 co-culture 24 h; PBMC-, IL6-, IL15+ (CD19)?
**A.** 25500 MFI

**Q.** What about the CD137MFI, hCAR+ cells; K19 co-culture 24 h; PBMC-, IL6-, IL15- (CD19) of the same binder?
**A.** 26800 MFI

**Q.** What about the CD137MFI, hCAR+ cells; K19 co-culture 48 h; PBMC+, IL6+, IL15- (CD19) of the same binder?
**A.** 43000 MFI

**Q.** And the CD137MFI, hCAR+ cells; K19 co-culture 48 h; PBMC+, IL6-, IL15- (CD19)?
**A.** 24800 MFI

**Q.** And the CD137MFI, hCAR+ cells; K19 co-culture 48 h; PBMC-, IL6+, IL15- (CD19)?
**A.** 51500 MFI

**Q.** What about the CD137MFI, hCAR+ cells; K19 co-culture 48 h; PBMC-, IL6-, IL15+ (CD19) of the same binder?
**A.** 51900 MFI

**Q.** What about the CD137MFI, hCAR+ cells; K19 co-culture 48 h; PBMC-, IL6-, IL15- (CD19) of the same binder?
**A.** 52600 MFI

**Q.** What about the CD137 expression of CAR T CD8+ cells, co-culture 48 h with Nalm-6 (CD19) of the same binder?
**A.** 11.1%

**Q.** What about the IFN-γ release, background subtracted; K19 co-culture 24 h; PBMC+, IL6+, IL15- (CD19) of the same binder?
**A.** 64300

**Q.** And the IFN-γ release, background subtracted; K19 co-culture 24 h; PBMC+, IL6-, IL15- (CD19)?
**A.** 64800

**Q.** What about the IFN-γ release, background subtracted; K19 co-culture 24 h; PBMC-, IL6+, IL15- (CD19) of the same binder?
**A.** 19200

**Q.** And the IFN-γ release, background subtracted; K19 co-culture 24 h; PBMC-, IL6-, IL15+ (CD19)?
**A.** 21300

**Q.** And the IFN-γ release, background subtracted; K19 co-culture 24 h; PBMC-, IL6-, IL15- (CD19)?
**A.** 16000

**Q.** And the IFN-γ release, background subtracted; K19 co-culture 48 h; PBMC+, IL6+, IL15- (CD19)?
**A.** 152000

**Q.** What about the IFN-γ release, background subtracted; K19 co-culture 48 h; PBMC+, IL6-, IL15- (CD19) of the same binder?
**A.** 160000

**Q.** What about the IFN-γ release, background subtracted; K19 co-culture 48 h; PBMC-, IL6+, IL15- (CD19) of the same binder?
**A.** 120000

**Q.** What about the IFN-γ release, background subtracted; K19 co-culture 48 h; PBMC-, IL6-, IL15+ (CD19) of the same binder?
**A.** 134000

**Q.** And the IFN-γ release, background subtracted; K19 co-culture 48 h; PBMC-, IL6-, IL15- (CD19)?
**A.** 114000

B2: 18.2 CAR (protein, part only; not given: Hinge, transmembrane and signaling domains, part only)
chain, part: DIVMTQSPSSLTVTAGEKVTMSCKSSQSLLNSGNQKNYLTWYQQKPGQPPKLLIYWASTRESGVPDRFTGSGSGTDFTLTISSVQAEDLAVYYCQNDYSYPFTFGSGTKLEIKGGGGSGGGGSGGGGSQVQLQQPGAELVRPGASVKLSCKASGYTFTSYWINWVKQRPGQGLEWIGNIYPSDSYTNYNQKFKDKATLTVDKSSSTAYMQLSSPTSEDSAVYYCTRSWRGNSFDYWGQGTTLTVSS
**Q.** B2 was tested. Which CD137 expression of CAR T CD8+ cells, co-culture 48 h with KATO III-18.2+ [1] did it give?
**A.** 8.77%
